Results: publication PMC6515530, “Characterization and Dye Decolorization Potential of Two Laccases from the Marine-Derived Fungus Pestalotiopsis sp” (International Journal of Molecular Sciences, 2019)

Columns and labels:
Test in all cases: purified protein
[1] = system: T1, COc1cc(C=NN=Cc2cc(OC)c(O)c(OC)c2)cc(OC)c1O; format: biochemical, Pestalotiopsis sp. KF079; settings: pH 5, 30 °C
T1 construct: secreted by Aspergillus niger D15#26, purified

[2] = system: CCn1c(=NN=c2sc3cc(S(=O)(=O)O)ccc3n2CC)sc2cc(S(=O)(=O)O)ccc21; settings: pH 4, 30 °C
[3] = system: COc1cc(-c2ccc(N)c(OC)c2)ccc1N; settings: pH 5, 30 °C

Row | Substance | Km [1] [µM] | kcat [1] [s⁻¹] | kcat/Km [1] [M⁻¹ s⁻¹] | Km [2] [µM] | kcat [2] [s⁻¹] | kcat/Km [2] [M⁻¹ s⁻¹] | Km [3] [µM] | kcat [3] [s⁻¹] | kcat/Km [3] [M⁻¹ s⁻¹]
1 | PsLac1 (Pestalotiopsis sp.) | 4 | 0.365 | 82900 | 24 | 0.696 | 29200 | 647 | 0.057 | 89
2 | PsLac2 (Pestalotiopsis sp.) | 101 | 0.573 | 5670 | 100 | 0.431 | 4330 | 144 | 0.748 | 5190
